Laboratory results as given in publication PMC4357396.

Target: biotinylated HLA-A*0201-…
Assay: SPR; BIAcore T100, CM5 chip; A2-EAA on the chip, MEL5 injected (ten serial dilutions, 45 uL/min); KDs by equilibrium analysis in triplicate at 5, 10, 15, 20, 25 and 30°C, nonlinear van't Hoff fit with T0 = 298 K; 10 mM HEPES pH 7.4, 150 mM NaCl, 3 mM EDTA, 0.005% P20; HLA-A*0201-… as negative control surface

dH: -14 kcal/mol
Substance: MEL5 TCR
